{"source": "paper PMC10978848", "about": "“Insights into the dual nature of αB-crystallin chaperone activity from the p.P39L mutant at the N-terminal region” (Scientific Reports, 2024)", "proteins": {"B1": {"name": "human αB-crystallin, wild-type (natural protein, UniProt P02511 1-175, looked up)", "chain": "MDIAIHHPWIRRPFFPFHSPSRLFDQFFGEHLLESDLFPTSTSLSPFYLRPPSFLRAPSWFDTGLSEMRLEKDRFSVNLDVKHFSPEELKVKVLGDVIEVHGKHEERQDEHGFISREFHRKYRIPADVDPLTITSSLSSDGVLTVNGPRKQVSGPERTIPITREEKPAVTAAPKK", "notes": "human αB-crystallin (CRYAB, HspB5); It names no tag; also called CRYAB; HspB5; source: E. coli, IPTG-induced, purified (anion exchange, DEAE cellulose); copies: 24"}, "B2": {"name": "human αB-crystallin p.P39L mutant (natural protein, UniProt P02511 1-175, looked up)", "chain": "B1 chain with P39L", "notes": "human αB-crystallin (CRYAB, HspB5) with the variant p.P39L, which was found in a patient; It names no tag; also called p.P39L αB-Cry; mutant αB-Cry; source: E. coli, IPTG-induced, purified (anion exchange, DEAE cellulose); copies: 48"}}, "biological_target": "the molecule itself", "assay": "AUC; sedimentation velocity, 40,000 rpm, 20 °C, absorbance at 280 nm, buffer A (50 mM sodium phosphate, pH 7.4); masses from c(M) after Schuck; size of the oligomer", "note": "Where a chain is given by its changes, count along the chain named. Numbers in names are those of the source.", "data": [{"protein": "B1", "values": [{"measurement": "stoichiometry N", "result": 24, "unit": "subunits"}]}, {"protein": "B2", "values": [{"measurement": "stoichiometry N", "result": 48, "unit": "subunits"}]}]}
